Laboratory results reported in patent US20220401482A1, “GENERATION OF CD38 KNOCK-OUT PRIMARY AND EXPANDED HUMAN NK CELLS” (RESEARCH INSTITUTE AT NATIONWIDE CHILDREN'S HOSPITAL, priority 2019, published 2022).

Molecular target: CD38 (cluster of differentiation 38) on human NK cells and multiple myeloma cells (human) (UniProt P28907)
Assay: cell-based or functional assay

daratumumab (antibody)
sensitivity to daratumumab-mediated fratricide, unmodified control (CD38-expressing) NK cells: 77%
